# In paper PMC2516929, “Yersinia enterocolitica Serum Resistance Proteins YadA and Ail Bind the Complement Regulator C4b-Binding Protein” (PLoS Pathogens, 2008):
# T1: YadA of Y. enterocolitica serotype O:3 (strain 6471/76), on the bacterial surface (Y. enterocolitica serotype O:3 (strain …, UniProt P31489 26-455))
# T1 construct: adhesin YadA, Y. enterocolitica 6471/76 serotype O:3, GenBank protein CAA32086; trimeric outer membrane protein; also called YadA (wild type, YeO3); source: endogenous (virulence plasmid pYV), on Y. enterocolitica O:3 strain 6471/76 (YeO3), grown in RPMI 1640 at 37°C
# T1 sequence: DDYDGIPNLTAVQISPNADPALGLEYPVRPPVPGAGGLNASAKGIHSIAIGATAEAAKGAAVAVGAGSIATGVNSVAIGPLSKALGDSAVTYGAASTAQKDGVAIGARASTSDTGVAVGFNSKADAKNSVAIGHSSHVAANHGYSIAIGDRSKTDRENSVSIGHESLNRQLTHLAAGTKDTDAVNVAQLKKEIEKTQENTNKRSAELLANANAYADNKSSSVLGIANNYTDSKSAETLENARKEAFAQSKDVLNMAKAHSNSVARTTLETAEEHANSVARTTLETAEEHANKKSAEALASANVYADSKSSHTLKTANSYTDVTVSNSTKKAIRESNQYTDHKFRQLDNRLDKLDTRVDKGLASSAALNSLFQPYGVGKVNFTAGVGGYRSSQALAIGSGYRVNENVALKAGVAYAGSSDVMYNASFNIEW
# T2: Ail of Y. enterocolitica serotype O:3, expressed in trans from pTM100-ail on strain YeO3-c-Ail-OCR (Y. enterocolitica serotype O:3, UniProt Q70AM3 24-178)
# T2 construct: Ail, Y. enterocolitica serotype O:3, ail gene cloned as 1711 bp PCR fragment into pTM100; GenBank protein CAE53849; Same protein as m5, from a plasmid; also called Ail (complemented); YeO3-c-Ail-OCR/pTM100-ail; source: pTM100-ail (cloned ail gene) in Y. enterocolitica YeO3-c-Ail-OCR (YadA-, Ail-, O-ag-, OC-), on the bacteria; overexpressed
# T2 sequence: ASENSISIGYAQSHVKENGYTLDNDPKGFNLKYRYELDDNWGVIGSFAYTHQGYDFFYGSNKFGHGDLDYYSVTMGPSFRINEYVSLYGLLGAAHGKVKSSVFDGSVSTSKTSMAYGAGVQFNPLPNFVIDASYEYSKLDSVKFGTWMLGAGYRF
# B1: C4b-binding protein (C4bp) with protein S (complex)
# chain 1: NCGPPPTLSFAAPMDITLTETRFKTGTTLKYTCLPGYVRSHSTQTLTCNSDGEWVYNTFCIYKRCRHPGELRNGQVEIKTDLSFGSQIEFSCSEGFFLIGSTTSRCEVQDRGVGWSHPLPQCEIVKCKPPPDIRNGRHSGEENFYAYGFSVTYSCDPRFSLLGHASISCTVENETIGVWRPSPPTCEKITCRKPDVSHGEMVSGFGPIYNYKDTIVFKCQKGFVLRGSSVIHCDADSKWNPSPPACEPNSCINLPDIPHASWETYPRPTKEDVYVVGTVLRYRCHPGYKPTTDEPTTVICQKNLRWTPYQGCEALCCPEPKLNNGEITQHRKSRPANHCVYFYGDEISFSCHETSRFSAICQGDGTWSPRTPSCGDICNFPPKIAHGHYKQSSSYSFFKEEIIYECDKGYILVGQAKLSCSYSHWSAPAPQCKALCRKPELVNGRLSVDKDQYVEPENVTIQCDSGYGVVGPQSITCSGNRTWYPEVPKCEWETPEGCEQVLTGKRLMQCLPNPEDVKMALEVYKLSLEIEQLELQRDSARQSTLDKEL
# chain 2: SDAEHCPELPPVDNSIFVAKEVEGQILGTYVCIKGYHLVGKKTLFCNASKEWDNTTTECRLGHCPDPVLVNGEFSSSGPVNVSDKITFMCNDHYILKGSNRSQCLEDHTWAPPFPICKSRDCDPPGNPVHGYFEGNNFTLGSTISYYCEDRYYLVGVQEQQCVDGEWSSALPVCKLIQEAPKPECEKALLAFQESKNLCEAMENFMQQLKESGMTMEELKYSLELKKAELKAKLL
# chain 3: ANSLLEETKQGNLERECIEELCNKEEAREVFENDPETDYFYPKYLVCLRSFQTGLFTAARQSTNAYPDLRSCVNAIPDQCSPLPCNEDGYMSCKDGKASFTCTCKPGWQGEKCEFDINECKDPSNINGGCSQICDNTPGSYHCSCKNGFVMLSNKKDCKDVDECSLKPSICGTAVCKNIPGDFECECPEGYRYNLKSKSCEDIDECSENMCAQLCVNYPGGYTCYCDGKKGFKLAQDQKSCEVVSVCLPLNLDTKYELLYLAEQFAGVVLYLKFRLPEISRFSAEFDFRTYDSEGVILYAESIDHSAWLLIALRGGKIEVQLKNEHTSKITTGGDVINNGLWNMVSVEELEHSISIKIAKEAVMDINKPGPLFKPENGLLETKVYFAGFPRKVESELIKPINPRLDGCIRSWNLMKQGASGIKEIIQEKQNKHCLVTVEKGSYYPGSGIAQFHIDYNNVSSAEGWHVNVTLNIRPSTGTGVMLALVSGNNTVPFAVSLVDSTSEKSQDILLSVENTVIYRIQALSLCSDQQSHLEFRVNRNNLELSTPLKIETISHEDLQRQLAVLDKAMKAKVATYLGGLPDVPFSATPVNAFYNGCMEVNINGVQLDLDEAISKHNDIRAHSCPSVWKKTKNS
# modifications: 125I label (Iodogen method) in the 125I-C4bp assays; labelled chain and residues not stated
# notes: eight CCP domains; the predominant form has seven identical alpha chains; three CCP domains; one beta chain in the predominant form; protein S, human; co-purified with C4bp from plasma ('C4bp with protein S'); also called 125I-C4bp; serum C4bp; source: purified from pooled human plasma (with protein S); copies: 7 + 1 +
# Columns and labels:
# [1] = biological target: T1, YadA of Y. enterocolitica serotype O:3 …; assay: radioligand binding; 125I-C4bp with 3x10^8 bacteria in 1/3 GVBS with NaCl from 50 to 650 mM; binding as percent of that at 50 mM NaCl; settings: one partner purified
# [2] = biological target: T2, Ail of Y. enterocolitica serotype O:3, …; assay: radioligand binding; 125I-C4bp (or 125I-BSA) with 3x10^8 bacteria in hypotonic 1/3 GVBS (50 mM NaCl), 30 min at 37°C; bacteria pelleted through 20% sucrose; bound as percent of total radioactivity; settings: one partner purified
binder,measurement,setting,value
B1,fold decrease of C4bp binding at 100 mM NaCl against 50 mM NaCl,[1],2 fold
same,fold C4bp binding capacity against strain YeO3-c-OCR,[2],~4 fold
